Measured values as given in US20100266587A1, “Compositions and Methods to Treat Acute Myelogenous Leukemia” (BIOGEN IDEC MA INC., priority 2009, published 2010).
Blank lines part the entries; values can stand above or below the molecule they belong to.

Key:
[1] = tested on: fibronectin-dependent cell adhesion; conditions: cited from earlier work
[2] = tested on: VLA-4 and VLA-5 adhesion to fibronectin; conditions: cited from earlier work
P-STAT3 = assay: Western blot of coculture-induced survival signaling; format: cell-based; conditions: cells cocultured with BMSCs, 30 minutes (HL60) or 4 hr (U266)
Protocol: FIG. 7 is a panel of Western blots assaying for P-STAT3, STAT3, P-JNK, JNK, P-MAPK, and MAPK levels in HL60, KG1 or U266 cells grown in suspension or cocultured with BMSCs and natalizumab, as indicated, for 30 minutes (HL60) or 4 hours (U266).
HL60, KG1 or U266 cells were grown in suspension or coculture with BMSCs and natalizumab, as indicated, for 30 minutes (HL60) or 4 hr (U266), and then the cells were separated from BMSCs, and processed for Western blot analysis to determine levels of P-STAT3, STAT3, P-JNK, JNK, P-MAPK, and MAPK (FIG. 7).

[3] = tested on: tumor cell binding to VLA-4 ligands; assay: Maximally attainable inhibition of tumor cell binding to VLA-4 ligands at saturating antibody; format: cell-based; conditions: saturating levels of natalizumab (20 μg/mL) vs isotype control
Protocol: FIGS. 3A and 3B are graphs showing the effect of natalizumab on HL60 and KG1 AML tumor cell adhesion to VLA-4 ligands fibronectin (• FN), vascular adhesion molecule-1-Ig fusion protein (▪ VCAM-Ig), or bone marrow stromal cells (▴ BMSC), in the presence of natalizumab or an isotype control antibody in serial dilutions starting at 20 μg/ml. FIGS. 3C and 3D show inhibition of binding of HL60 and KG1 AML cells to VLA-4 ligands in the presence saturating levels of natalizumab (20 μg/mL) (solid bars) or isotype control (clear bars).
(§1) FIGS. 4A and 4B are graphs showing the effect of natalizumab on H929 and U266 mM tumor cell adhesion to VLA-4 ligands fibronectin (• FN), vascular adhesion molecule-1-Ig fusion protein (▪ VCAM-Ig), or bone marrow stromal cells (▴ BMSC). Adhesion was assayed in the presence of natalizumab or an isotype control antibody in serial dilutions starting at 20 μg/ml.
as §1, with “5A” for “4A”, “5B” for “4B”, “Mec1” for “H929”, “JM1 CLL” for “U266 mM”
Experiments were conducted to test whether a VLA-4 antagonist can inhibit binding of tumor cells to a VLA-4 ligand. […]

MM cell line U226 = assay: Adhesion mediated drug resistance, MM cells, melphalan; format: cell-based
Protocol: (§2) FIGS. 6A-6D are graphs showing the results of natalizumab on cell adhesion mediated drug resistance. FIG. 6A depicts the percentage of viable HL60 cells remaining after the cells were cocultured for 24 hours with (▪) or without (□) BMSC, then exposed to the chemotherapy drug AraC (cytarabine) for 24 hours. FIG. 6B depicts the percentage of apoptotic cells (Annexin V+, 7AAD) after cocultured HL60 cells were incubated with natalizumab or isotype control antibody for 4 hr., and then exposed to an effective AraC dose as determined from FIG. 6A for 24 hours. FIGS. 6C and 6D show the results of similar experiments conducted with U266 cells exposed to melphalan.

[4] = biological target: T1, VLA-4 on tumor cell lines (Homo sapiens, UniProt P13612); assay: Binding of natalizumab to AML, CLL and MM tumor cell lines by flow cytometry (all lines)
T1 construct: VLA-4 expression was observed on all cell lines tested; endogenous in cells; host or cells: HL60, KG1 (AML); U266, H929 (MM); Mec1, JM1 (CLL)
Protocol: FIG. 2 is a graph depicting binding of natalizumab to VLA-4 on tumor cell lines as measured by flow cytometry.
(§3) Flow cytometry experiments were performed to assess the level of VLA-4 expression on tumor cell lines, and VLA-4 expression was observed on all cell lines tested (FIG. 1).).

AML cell line HL60 = assay: Adhesion mediated drug resistance, HL60 cocultured with BMSC, ara-C, apoptosis; format: cell-based; conditions: natalizumab combined with ara-C 10 μM, 24 hours
Protocol: as §2
Culturing the AML cell line HL60 in the presence of BMSC conferred a protective advantage to the cells when treated with the chemotherapeutic agent ara-C, as shown in FIG. 6A. Cells were cultured for 24 hours with (▴) or without (□) BMSC, then exposed to the chemotherapy drug AraC (cytarabine) for 24 hours (FIG. 6A). Cell viability was enhanced by the presence of BMSC.

[5] = biological target: T2, VLA-4 (alpha4beta1 integrin) on hematologic tumor cell lines (UniProt P13612 34-1032; P05556 21-798); assay: cell-based or functional assay
[6] = biological target: T2, VLA-4 (alpha4beta1 integrin) on …; assay: flow cytometry, binding to JM1 (CLL) cells
Protocol: as §3

[7] = biological target: T2, VLA-4 (alpha4beta1 integrin) on …; assay: inhibition of KG1 cell adhesion to wells coated with fibronectin (FN)
Protocol: (§4) Experiments were conducted to test whether a VLA-4 antagonist can inhibit binding of tumor cells to a VLA-4 ligand. Cell lines were allowed to adhere to wells coated with fibronectin (• FN), vascular adhesion molecule-1-Ig fusion protein (▪ VCAM-Ig), or bone marrow stromal cells (▴ BMSC), in the presence of increasing concentrations of natalizumab or isotype control antibody.

[8] = biological target: T2, VLA-4 (alpha4beta1 integrin) on …; assay: inhibition of H929 cell adhesion to wells coated with fibronectin (FN)
Protocol: as §1, §4

[9] = biological target: T2, VLA-4 (alpha4beta1 integrin) on …; assay: inhibition of HL60 cell adhesion to wells coated with fibronectin (FN)
Protocol: as §4

[10] = biological target: T2, VLA-4 (alpha4beta1 integrin) on …; assay: inhibition of U266 cell adhesion to wells coated with fibronectin (FN)
Protocol: as §1, §4

[11] = biological target: T2, VLA-4 (alpha4beta1 integrin) on …; assay: flow cytometry, binding to Mec1 (CLL) cells
Protocol: as §3

[12] = biological target: T2, VLA-4 (alpha4beta1 integrin) on …; assay: inhibition of JM1 cell adhesion to wells coated with fibronectin (FN)
Protocol: as §1, with “5A” for “4A”, “5B” for “4B”, “Mec1” for “H929”, “JM1 CLL” for “U266 mM”
as §4

[13] = biological target: T2, VLA-4 (alpha4beta1 integrin) on …; assay: inhibition of Mec1 cell adhesion to wells coated with fibronectin (FN)
Protocol: as §1, with “5A” for “4A”, “5B” for “4B”, “Mec1” for “H929”, “JM1 CLL” for “U266 mM”
as §4

[14] = biological target: T2, VLA-4 (alpha4beta1 integrin) on …; assay: flow cytometry, binding to U266 (MM) cells
Protocol: as §3

[15] = biological target: T2, VLA-4 (alpha4beta1 integrin) on …; assay: inhibition of JM1 cell adhesion to wells coated with VCAM-Ig
Protocol: as §1, with “5A” for “4A”, “5B” for “4B”, “Mec1” for “H929”, “JM1 CLL” for “U266 mM”
as §4

[16] = biological target: T2, VLA-4 (alpha4beta1 integrin) on …; assay: flow cytometry, binding to KG1 (AML) cells
Protocol: as §3

[17] = biological target: T2, VLA-4 (alpha4beta1 integrin) on …; assay: inhibition of HL60 cell adhesion to wells coated with VCAM-Ig
Protocol: as §4

[18] = biological target: T2, VLA-4 (alpha4beta1 integrin) on …; assay: flow cytometry, binding to HL60 (AML) cells
Protocol: as §3

[19] = biological target: T2, VLA-4 (alpha4beta1 integrin) on …; assay: inhibition of U266 cell adhesion to wells coated with VCAM-Ig
Protocol: as §1, §4

[20] = biological target: T2, VLA-4 (alpha4beta1 integrin) on …; assay: inhibition of Mec1 cell adhesion to wells coated with VCAM-Ig
Protocol: as §1, with “5A” for “4A”, “5B” for “4B”, “Mec1” for “H929”, “JM1 CLL” for “U266 mM”
as §4

[21] = biological target: T2, VLA-4 (alpha4beta1 integrin) on …; assay: inhibition of H929 cell adhesion to wells coated with VCAM-Ig
Protocol: as §1, §4

[22] = biological target: T2, VLA-4 (alpha4beta1 integrin) on …; assay: flow cytometry, binding to H929 (MM) cells
Protocol: as §3

[23] = biological target: T2, VLA-4 (alpha4beta1 integrin) on …; assay: inhibition of KG1 cell adhesion to wells coated with VCAM-Ig
Protocol: as §4

Molecule: Glu-Ile-Leu-Asp-Val-Pro-Ser-Thr
Inhibitory activity against fibronectin-dependent cell adhesion [1]: possessed inhibitory activity

Molecule: Arg-Cys-Asp-TPro-Cys
Inhibition of VLA-4 and VLA-5 adhesion to fibronectin [2]: can inhibit both VLA-4 and VLA-5 adhesion to fibronectin

Molecule: Leu-Asp-Val-Pro-Ser (LDVPS; printed: Leu-Asp-Val-Pro-Ser) [pentapeptide from the CS-1 region of fibronectin]
Inhibitory activity against fibronectin-dependent cell adhesion [1]: possessed inhibitory activity

Binding to AML, CLL and MM tumor cell lines [4]: saturable binding was observed
Molecule: Natalizumab
Coculture-induced survival signaling through P-STAT3 (P-STAT3): can be inhibited
Inhibition of tumor cell binding to VLA-4 ligands at saturating levels [3]: inhibit binding in all cell types assayed
Effect on cell adhesion mediated resistance to melphalan (MM cell line U226): did not have a cytoprotective effect
Percentage of cells undergoing apoptosis (AML cell line HL60): increase in the percentage of cells undergoing apoptosis

Molecule: Glu-Ile-Leu-Asp-Val (EILDV; printed: Glu-Ile-Leu-Asp-Val) [pentapeptide from the CS-1 region of fibronectin]
Inhibitory activity against fibronectin-dependent cell adhesion [1]: possessed inhibitory activity

IC50 (nM) of inhibition of H929 (MM) cell adhesion to bone marrow stromal cells (BMSC) [5]: 1.74 nM
IC50 (nM) of inhibition of HL60 (AML) cell adhesion to bone marrow stromal cells (BMSC) [5]: 13.7 nM
IC50 (nM) of inhibition of U266 (MM) cell adhesion to bone marrow stromal cells (BMSC) [5]: 0.53 nM
EC50 [6]: 280 pM
IC50 [7]: 100 pM
IC50 [8]: 400 pM
IC50 [9]: 500 pM
IC50 [10]: 400 pM
EC50 [11]: 110 pM
IC50 [12]: 11600 pM
IC50 [13]: 390 pM
EC50 [14]: 300 pM
IC50 [15]: 190 pM
EC50 [16]: 220 pM
IC50 [17]: 920 pM
EC50 [18]: 190 pM
IC50 [19]: 260 pM
IC50 [20]: 220 pM
IC50 [21]: 450 pM
EC50 [22]: 800 pM
IC50 [23]: 190 pM
B1: natalizumab (antibody, human IgG4, kappa, V domains shown)
VH: QVQLVQSGAEVKKPGASVKVSCKASGFNIKDTYIHWVRQAPGQRLEWMGRIDPANGYTKYDPKFQGRVTITADTSASTAYMELSSLRSEDTAVYYCAREGYYGNYGVYAMDYWGQGTLVTVSS
VL: DIQMTQSPSSLSASVGDRVTITCKTSQDINKYMAWYQQTPGKAPRLLIHYTSALQPGIPSRFSGSGSGRDYTFTISSLQPEDIATYYCLQYDNLWTFGQGTKVEIKR
modifications: Glutamine 1 cyclized to pyroGlutamic Acid; C-terminal Lysine is removed posttranslationally
notes: Humanized version of murine monoclonal antibody 21.6; also called AN100226; TYSABRI
